Assay results as given in US20240148828A1 (SHATTUCK LABS, published 2024).

T1: CD19 expressed on cells (Daudi, Raji, K562-CD19) (human, UniProt P15391 20-556)
T1 construct: whole, on cells
T1 sequence (looked up): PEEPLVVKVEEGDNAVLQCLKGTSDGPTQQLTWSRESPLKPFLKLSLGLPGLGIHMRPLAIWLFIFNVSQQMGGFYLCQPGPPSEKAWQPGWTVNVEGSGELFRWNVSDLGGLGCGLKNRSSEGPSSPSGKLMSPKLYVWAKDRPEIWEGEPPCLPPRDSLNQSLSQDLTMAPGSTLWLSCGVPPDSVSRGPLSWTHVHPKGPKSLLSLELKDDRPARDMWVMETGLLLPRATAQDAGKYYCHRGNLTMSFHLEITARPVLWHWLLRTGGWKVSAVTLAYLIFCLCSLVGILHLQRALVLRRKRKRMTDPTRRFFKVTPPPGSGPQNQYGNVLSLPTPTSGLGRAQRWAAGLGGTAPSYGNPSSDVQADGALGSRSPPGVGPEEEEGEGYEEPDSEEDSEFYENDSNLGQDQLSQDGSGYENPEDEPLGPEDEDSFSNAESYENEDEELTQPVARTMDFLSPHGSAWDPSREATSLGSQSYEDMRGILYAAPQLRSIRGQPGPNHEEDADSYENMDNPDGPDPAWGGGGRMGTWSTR

T2: recombinant B7H3-His protein (UniProt Q5ZPR3 29-461, limits assumed)
T2 construct: not shown: His tag
T2 sequence (looked up): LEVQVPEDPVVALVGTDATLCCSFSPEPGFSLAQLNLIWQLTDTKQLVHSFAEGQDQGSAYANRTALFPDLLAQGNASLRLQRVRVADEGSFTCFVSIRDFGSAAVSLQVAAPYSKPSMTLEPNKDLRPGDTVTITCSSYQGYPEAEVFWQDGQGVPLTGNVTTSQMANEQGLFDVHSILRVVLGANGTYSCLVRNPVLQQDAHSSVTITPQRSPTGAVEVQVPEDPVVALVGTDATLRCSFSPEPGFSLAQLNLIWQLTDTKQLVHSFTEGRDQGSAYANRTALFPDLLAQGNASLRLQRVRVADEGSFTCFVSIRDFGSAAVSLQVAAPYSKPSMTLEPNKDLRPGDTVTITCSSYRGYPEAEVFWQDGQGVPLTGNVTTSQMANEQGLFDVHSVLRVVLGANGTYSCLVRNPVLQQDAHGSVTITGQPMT

T3: B7H3 expressed on cells (OV-90, OVCAR3) (human, UniProt Q5ZPR3 29-534)
T3 construct: whole, on cells; also called B7H3+ OV90 tumor cells; B7H3+ OVCAR3 cells
T3 sequence (looked up): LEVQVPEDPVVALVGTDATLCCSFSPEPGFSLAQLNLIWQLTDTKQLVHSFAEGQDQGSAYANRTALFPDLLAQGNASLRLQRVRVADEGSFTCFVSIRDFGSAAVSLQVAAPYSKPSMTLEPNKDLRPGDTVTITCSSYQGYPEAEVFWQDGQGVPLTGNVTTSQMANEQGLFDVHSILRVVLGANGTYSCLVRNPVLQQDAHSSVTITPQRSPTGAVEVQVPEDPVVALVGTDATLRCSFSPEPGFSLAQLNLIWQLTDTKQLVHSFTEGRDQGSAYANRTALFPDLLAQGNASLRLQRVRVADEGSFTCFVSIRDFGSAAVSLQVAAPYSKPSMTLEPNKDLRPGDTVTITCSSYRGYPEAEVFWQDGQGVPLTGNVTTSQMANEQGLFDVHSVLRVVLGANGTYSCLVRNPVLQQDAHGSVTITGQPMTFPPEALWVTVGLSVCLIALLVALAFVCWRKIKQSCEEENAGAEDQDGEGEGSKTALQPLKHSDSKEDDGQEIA


What was measured:
[1] = biological target: T4, recombinant FAP-His protein (UniProt Q12884 26-760); experiment: MSD plate assay, plate-bound FAP-His, detection with anti-BTN3A1 antibody
T4 construct: not shown: His tag
T4 sequence (Q12884 26-760 limits assumed): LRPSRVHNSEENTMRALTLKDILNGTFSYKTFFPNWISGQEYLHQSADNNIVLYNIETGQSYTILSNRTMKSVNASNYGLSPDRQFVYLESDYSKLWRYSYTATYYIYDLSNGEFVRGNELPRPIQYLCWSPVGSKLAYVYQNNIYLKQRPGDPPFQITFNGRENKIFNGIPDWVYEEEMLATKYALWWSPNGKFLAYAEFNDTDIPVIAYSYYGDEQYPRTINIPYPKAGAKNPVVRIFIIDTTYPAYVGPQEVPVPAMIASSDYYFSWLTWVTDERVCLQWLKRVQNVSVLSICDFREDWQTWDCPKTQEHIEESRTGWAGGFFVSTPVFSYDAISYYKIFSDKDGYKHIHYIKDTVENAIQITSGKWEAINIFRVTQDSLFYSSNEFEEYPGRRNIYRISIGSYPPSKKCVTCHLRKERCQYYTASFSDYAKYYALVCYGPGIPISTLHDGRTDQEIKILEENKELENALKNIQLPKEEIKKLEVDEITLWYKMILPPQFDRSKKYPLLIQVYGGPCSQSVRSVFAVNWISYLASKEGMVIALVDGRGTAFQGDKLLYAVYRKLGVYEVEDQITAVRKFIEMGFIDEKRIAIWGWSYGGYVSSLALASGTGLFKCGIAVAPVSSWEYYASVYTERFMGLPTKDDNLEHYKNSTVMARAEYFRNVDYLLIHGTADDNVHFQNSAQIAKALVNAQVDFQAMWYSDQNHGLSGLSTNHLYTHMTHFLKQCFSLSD

[2] = biological target: T1, CD19 expressed on cells (Daudi, Raji, …); experiment: flow cytometry on Daudi cells
[3] = biological target: T2, recombinant B7H3-His protein; experiment: MSD plate assay, plate-bound B7H3-His, detection with anti-BTN3A1 antibody
Description: Briefly, recombinant B7H3-His protein was coated on a plate. […] Binding was detected using SULFO-TAG conjugated anti-mouse antibody.

[4] = biological target: T3, B7H3 expressed on cells (OV-90, OVCAR3); experiment: flow cytometry on OV-90 cells
Description: (§1) Binding was detected using an AF647 conjugated anti-Fc reagent with flow cytometry.

[5] = biological target: T1, CD19 expressed on cells (Daudi, Raji, …); experiment: flow cytometry on RAJI cells (B7H3-negative, CD19-expressing), AF647 anti-Fc detection
Description: as §1

binding result [1] | binding result [2] | binding result [3] | binding result [4] | binding result [5] | Binder
no binding | binds | no binding | – | – | BTN2A1/3A1-Fc-CD19scFv heterodimeric protein (Fc fusion, Secreted from Expi293 or CHO cells and purified; also called BTN2A1/3A1-Fc-CD19scFv3; BTN2A1/3A1-Fc-19scFv) chain 1: QFIVVGPTDPILATVGENTTLRCHLSPEKNAEDMEVRWFRSQFSPAVFVYKGGRERTEEQMEEYRGRTTFVSKDISRGSVALVIHNITAQENGTYRCYFQEGRSYDEAILHLVVAGLGSKPLISMRGHEDGGIRLECISRGWYPKPLTVWRDPYGGVAPALKEVSMPDADGLFMVTTAVIIRDKSVRNMSCSINNTLLGQKKESVIFIPESFMPSVSPCAGSGSRKGGKRGSKYGPPCPPCPAPEFLGGPSVFLFPPKPKDQLMISRTPEVTCVVVDVSQEDPEVQFNWYVDGVEVHNAKTKPREEQFNSTYRVVSVLTVLHQDWLSGKEYKCKVSSKGLPSSIEKTISNATGQPREPQVYTLPPSQEEMTKNQVSLTCLVKGFYPSDIAVEWESNGQPENNYKTTPPVLDSDGSFFLYSRLTVDKSRWQEGNVFSCSVLHEALHNHYTQKSLSLSLGKDEGGEDGSDIQMTQTTSSLSASLGDRVTISCRASQDISKYLNWYQQKPDGTVKLLIYHTSRLHSGVPSRFSGSGSGTDYSLTISNLEQEDIATYFCQQGNTLPYTFGGGTKLEITGGGSGGGSGGGSEVKLQESGPGLVAPSQSLSVTCTVSGVSLPDYGVSWIRQPPRKGLEWLGVIWGSETTYYNSALKSRLTIIKDNSKSQVFLKMNSLQTDDTAIYYCAKHYYYGGSYAMDYWGQGTSVTVSS chain 2: not shown
– | – | – | binds | no binding | BTN2A1/3A1-Fc-B7H3scFv heterodimeric protein (Fc fusion, Produced by transient co-transfection of ExpiCHO cells; also called BTN2A1/3A1-Fc-B7H3scFv/B7H3scFv) chain 1: QFIVVGPTDPILATVGENTTLRCHLSPEKNAEDMEVRWFRSQFSPAVFVYKGGRERTEEQMEEYRGRTTFVSKDISRGSVALVIHNITAQENGTYRCYFQEGRSYDEAILHLVVAGLGSKPLISMRGHEDGGIRLECISRGWYPKPLTVWRDPYGGVAPALKEVSMPDADGLFMVTTAVIIRDKSVRNMSCSINNTLLGQKKESVIFIPESFMPSVSPCAGSGSRKGGKRGSKYGPPCPPCPAPEFLGGPSVFLFPPKPKDQLMISRTPEVTCVVVDVSQEDPEVQFNWYVDGVEVHNAKTKPREEQFNSTYRVVSVLTVLHQDWLSGKEYKCKVSSKGLPSSIEKTISNATGQPREPQVYTLPPSQEEMTKNQVSLTCLVKGFYPSDIAVEWESNGQPENNYKTTPPVLDSDGSFFLYSRLTVDKSRWQEGNVFSCSVLHEALHNHYTQKSLSLSLGKDEGGEDGSDIQMTQSPSFLSASVGDRVTITCKASQNVDTNVAWYQQKPGKAPKALIYSASYRYSGVPSRFSGSGSGTDFTLTISSLQPEDFAEYFCQQYNNYPFTFGQGTKLEIKSSGGGGSGGGGSGGGGSEVQLVESGGGLVQPGGSLRLSCAASGFTFSSFGMHWVRQAPGKGLEWVAYISSGSGTIYYADTVKGRFTISRDNAKNSLYLQMNSLRAEDTAVYYCARHGYRYEGFDYWGQGTTVTVSS chain 2: not shown
